The text below walks through data of patent US20230312753A1 (IMMUNORIZON, published 2023).

The target in experiment [1] is T1, hCD3epsilon-His (recombinant human CD3 epsilon) (human, UniProt P07766 23-126).
T1 construct: Bought protein; also called recombinant hCD3ε protein; human CD3ε
As to the kind of experiment: ELISA on coated hCD3epsilon-His (FIG. 43A). As to the method:
Methods: ELISA binding of Tribody/ProTribody antibody constructs to antigens: Dilute target protein (hCD3epsilon-His (cat # 10977-H08S, supplier Sino Biological); h5T4-His (cat# 19845-H08H, supplier Sino Biological); NKG2A-CD94-ECD-hFc, Lot:20200724002, provided by CP; or NKG2D-ECD-hFc, Lot: 20200413002, provided by CP) into PBS with final concentration of 0.01 µg/mL for hCD3epsilon-His, 0.3 µg/mL for h5T4-His, 1 µg/mL for NKG2A-CD94-ECD-hFc and 0.7 µg/mL for hNKG2D-ECD-hFc respectively and coat 100 µL/well on ELISA plate (cat: 9018, supplier Corning) respectively. Incubate O/N, 4° C. The plates were blocked with 250 µL 1% BSA in PBST for 1 hr at 37° C.Wash 4 times with PBST. All the washes are done using Biotek (Elx 405). All the Tribody set antibodies were diluted to 400 nM and make 4-fold serially dilutions (12 points, including 0 point). Add 100 µL/well diluted antibody constructs solution to plate, incubate for 1 hr at 37° C.Wash 4 times with PBST. Add 100 µL/well anti-human kappa light chain-HRP (1:10000), incubate for 0.5 hr at 37° C. Wash 4 times with PBST. 100 µL/well of TMB substrate was added and incubated at room temperature for 5 min. 100 µL/well of 1N HCl to terminate reaction. Plates were read using ELISA plate reader at 450 nm wavelength (instrunet SpectraMax M5e). […]
For orientation: In an ELISA, binding on a coated surface is turned into a signal by an enzyme label.

Experiment [2] concerns the target T2, NKG2A-CD94-ECD-hFc (human, UniProt P26715 94-233; Q13241 32-179, limits assumed).
T2 construct: extracellular domain; Lot 20200724002, 'provided by CP'; the two-chain layout here is only the reading of the name; also called human NKG2A (recombinant); NKG2A antigen; not shown: human Fc (hFc)
Briefly: ELISA on coated NKG2A-CD94-ECD-hFc (FIG. 43C). How it is done: Methods: ELISA binding of Tribody/ProTribody antibody constructs to antigens: Dilute target protein (hCD3epsilon-His (cat # 10977-H08S, supplier Sino Biological); h5T4-His (cat# 19845-H08H, supplier Sino Biological); NKG2A-CD94-ECD-hFc, Lot:20200724002, provided by CP; or NKG2D-ECD-hFc, Lot: 20200413002, provided by CP) into PBS with final concentration of 0.01 µg/mL for hCD3epsilon-His, 0.3 µg/mL for h5T4-His, 1 µg/mL for NKG2A-CD94-ECD-hFc and 0.7 µg/mL for hNKG2D-ECD-hFc respectively and coat 100 µL/well on ELISA plate (cat: 9018, supplier Corning) respectively. Incubate O/N, 4° C. The plates were blocked with 250 µL 1% BSA in PBST for 1 hr at 37° C.Wash 4 times with PBST. All the washes are done using Biotek (Elx 405). All the Tribody set antibodies were diluted to 400 nM and make 4-fold serially dilutions (12 points, including 0 point). Add 100 µL/well diluted antibody constructs solution to plate, incubate for 1 hr at 37° C.Wash 4 times with PBST. Add 100 µL/well anti-human kappa light chain-HRP (1:10000), incubate for 0.5 hr at 37° C. Wash 4 times with PBST. 100 µL/well of TMB substrate was added and incubated at room temperature for 5 min. 100 µL/well of 1N HCl to terminate reaction. Plates were read using ELISA plate reader at 450 nm wavelength (instrunet SpectraMax M5e). Data Analysis was performed using Graphpad prism 5 software by using nonlinear regression (curve fit): log (agonist) vs. response, agonist is antibody concentration (nM) and response is OD value.

For experiment [3], the target named is T3, NKG2A on NK92 cells (endogenous) (UniProt P26715 1-233, limits assumed).
T3 construct: whole, on cells
As to the kind of experiment: FACS on NK92 cells, endogenous NKG2A (FIG. 45C). As to the method: (§1) Suspension cultured cells was harvested directly, and adherent cell were digested using TrypLE Express Enzyme (cat: 12604-013, supplier Life technologies). Centrifuge at 1000 rpm for 5 min and discard the supernatant. Cells are suspended at a concentration of 2×10⁶/mL in FACS buffer (2% FBS in PBS) and add 100 µL/well of cell suspension to the plate (cat #3799, supplier Corning). Centrifuging the plates at 2000 rpm for 5 min and discard the supernatant. Re-suspend the cells in 100 µL/well of Tribody set antibodies (400 nM start, 4-fold dilution, 8 point including 0 point) and incubate the plate for 60 min at 4° C. Centrifuge the plate at 2000 rpm, 4° C. for 5 min and discard supernatant. Then wash the cells 3 times with 170 µL FACS buffer. Re-suspend the cells at 100 µL/well with secondary antibody (goat anti-human Ig Fab-FITC, Cat # 2085-02, Southern biotech) with 1:400 dilution and incubate the plate for 30 min at 4° C. in dark. Centrifuge the plate at 2000 rpm, 4° C. for 5 min and discard supernatant. […] The fluorescence intensity of the staining was measured using flow cytometer (BD, FACSVerse). The geometric mean fluorescence intensity (GMFI; median fluorescence intensity (MFI)) of set antibodies staining was calculated (BD FACSuite software). Dose-response curves were generated and EC50s for thetrispecific variants binding were calculated using GraphPad Prism software.

In experiment [4] the target is T4, 5T4 on cells (NCI-H226 endogenous; CHO over-expressing 5T4) (UniProt Q13641 32-420, limits assumed).
T4 construct: whole, on cells
T4 sequence (looked up): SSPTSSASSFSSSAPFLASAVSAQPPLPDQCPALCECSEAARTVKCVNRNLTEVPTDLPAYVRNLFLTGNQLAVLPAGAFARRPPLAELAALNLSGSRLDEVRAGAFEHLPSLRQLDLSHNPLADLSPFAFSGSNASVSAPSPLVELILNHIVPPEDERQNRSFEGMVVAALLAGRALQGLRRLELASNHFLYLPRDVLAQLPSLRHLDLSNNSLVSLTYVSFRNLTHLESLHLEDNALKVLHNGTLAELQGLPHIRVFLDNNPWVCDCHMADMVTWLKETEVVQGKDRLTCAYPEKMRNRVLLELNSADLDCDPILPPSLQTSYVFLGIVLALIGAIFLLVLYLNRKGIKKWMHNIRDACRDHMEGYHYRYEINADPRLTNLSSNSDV
Briefly: FACS on NCI-H226 cells, endogenous 5T4 (FIG. 45B). As to the method: as §1

In experiment [5] the target is T4, 5T4 on cells (NCI-H226 endogenous; CHO …). As to the kind of experiment: FACS on CHO cells over-expressing ectopic 5T4 (FIG. 45D). How it is done:
(§2) Then wash the cells 3 times with 170 µL FACS buffer. Re-suspend the cells at 100 µL/well with secondary antibody (goat anti-human Ig Fab-FITC, Cat # 2085-02, Southern biotech) with 1:400 dilution and incubate the plate for 30 min at 4° C. in dark. Centrifuge the plate at 2000 rpm, 4° C. for 5 min and discard supernatant. Then wash the cells 3 times with FACS buffer and analyze the sample with FACS verse. The fluorescence intensity of the staining was measured using flow cytometer (BD, FACSVerse). The geometric mean fluorescence intensity (GMFI; median fluorescence intensity (MFI)) of set antibodies staining was calculated (BD FACSuite software). Dose-response curves were generated and EC50s for thetrispecific variants binding were calculated using GraphPad Prism software.
(§3) Results: The expressed trispecific constructs were analyzed for their binding to cells expressing endogenous CD3ε, 5T4 and NKG2A/NKG2D. […] (FIG. 45F).

For experiment [6], the target named is T5, NKG2A/CD94 on CHO cells (CHOK1-NKG2A-CD94) (human, UniProt P26715 1-233; Q13241 1-179, limits assumed).
T5 construct: whole, on cells; also called CHO cells over-expressing NKG2A/CD94; CHO cell line over expressing ectopic NKG2A
As to the kind of experiment: FACS on CHO cells over-expressing human NKG2A (FIG. 45F). How it is done:
as §2, §3

Experiment [7] has as its target T5, NKG2A/CD94 on CHO cells …. Briefly: competitive FACS receptor-ligand blocking assay on CHOK1-NKG2A-CD94 cells, labelled ligand HLA-E PE (FIG. 49).

T5 sequence (P26715 whole entry, chain 1 of 2): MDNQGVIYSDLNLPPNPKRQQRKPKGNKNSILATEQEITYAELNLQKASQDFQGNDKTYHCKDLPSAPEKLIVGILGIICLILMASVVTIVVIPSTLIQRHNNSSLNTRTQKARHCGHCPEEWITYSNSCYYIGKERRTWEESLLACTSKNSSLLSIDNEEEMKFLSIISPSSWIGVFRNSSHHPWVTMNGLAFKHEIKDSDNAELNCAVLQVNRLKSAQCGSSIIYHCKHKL
T5 sequence (Q13241 whole entry, chain 2 of 2): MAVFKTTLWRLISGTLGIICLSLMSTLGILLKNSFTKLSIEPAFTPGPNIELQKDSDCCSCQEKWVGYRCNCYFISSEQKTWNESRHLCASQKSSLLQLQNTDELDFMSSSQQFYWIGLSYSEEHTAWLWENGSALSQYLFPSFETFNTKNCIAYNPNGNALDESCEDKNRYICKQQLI
T3 sequence (P26715 whole entry): as the sequence (P26715 whole entry, chain 1 of 2) above
T2 sequence (P26715 94-233 limits assumed, chain 1 of 2): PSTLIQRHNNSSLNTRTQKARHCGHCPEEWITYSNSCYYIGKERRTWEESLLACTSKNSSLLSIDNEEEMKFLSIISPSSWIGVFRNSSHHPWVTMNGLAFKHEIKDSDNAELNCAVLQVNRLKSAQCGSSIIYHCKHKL
T2 sequence (Q13241 32-179 limits assumed, chain 2 of 2): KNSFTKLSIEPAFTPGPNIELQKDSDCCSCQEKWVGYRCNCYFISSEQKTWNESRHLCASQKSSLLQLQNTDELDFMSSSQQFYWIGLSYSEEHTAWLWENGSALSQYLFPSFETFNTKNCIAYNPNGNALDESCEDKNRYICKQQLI
T1 sequence (P07766 23-126 limits assumed): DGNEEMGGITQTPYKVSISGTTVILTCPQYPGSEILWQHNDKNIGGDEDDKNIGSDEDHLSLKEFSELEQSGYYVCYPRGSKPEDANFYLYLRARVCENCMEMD

B1: IM-1062 Tribody (other)
heavy: GGSGGSEVQLVESGGGLVQPGGSLRLSCAASGFTFNTYAMNWVRQAPGKGLEWVARIRSKYNNYATYYADSVKDRFTISRDDSKNTLYLQMNSLRAEDTAVYYCVRHGNFGNSYVSWFAYWGQGTMVTVSSASTKGPSVFPLAPSSKSTSGGTAALGCLVKDYFPEPVTVSWNSGALTSGVHTFPAVLQSSGLYSLSSVVTVPSSSLGTQTYICNVNHKPSNTKVDKRVEPKSCPPCGGGGSDIQMTQSPSSLSASVGDRVTITCRASENIYSYLAWYQQKPGKAPKLLIYNAKTLAEGVPSRFSGSGSGTDFTLTISSLQPEDFATYYCQHHYGTPRTFGGGTKVEIKGGGGSGGGGSGGGGSGGGGSQVQLVQSGAEVKKPGASVKVSCKASGYTFTSYWMNWVRQAPGQGLEWMGRIDPYDSETHYAQKLQGRVTMTTDTSTSTAYMELRSLRSDDTAVYYCARGGYDFDVGTLYWFFDVWGQGTTVTVSS
light: GGSGGSQAVVTQEPSLTVSPGGTVTLTCRSSTGAVTTSNYANWVQQKPGQAPRGLIGGTNKRAPGTPARFSGSLLGGKAALTLSGVQPEDEAEYYCALWYSNLWVFGGGTKLTVLGQPKAAPSVTLFPPSSEELQANKATLVCLISDFYPGAVTVAWKADSSPVKAGVETTTPSKQSNNKYAASSYLSLTPEQWKSHRSYSCQVTHEGSTVEKTVAPTECPPCSGGGSDIQMTQSPSSLSASVGDRVTITCRASQGISNYLAWFQQKPGKAPKSLIYRANRLQSGVPSRFSGSGSGTDFTLTISSLQPEDVATYYCLQYDDFPWTFGQGTKLEIKGGGGSGGGGSGGGGSGGGGSQVQLVQSGAEVKKPGASVKVSCKASGYTFTSFWMHWVRQAPGQGLEWMGRIDPNRGGTEYNEKAKSRVTMTADKSTSTAYMELSSLRSEDTAVYYCAGGNPYYPMDYWGQGTTVTVSS
notes: Tri-specific antibody (Tribody): anti-CD3 epsilon Fab with an anti-5T4 scFv and an anti-NKG2A scFv, no regulatory domain; also called the Tribody format
For B1, the EC50 in experiment [1] was determined as 1.69 nM; in experiment [2], 4.4 nM; in experiment [3], 6.5 nM; in experiment [4], 1.78 nM; in experiment [5], 0.9 nM; in experiment [6], 16 nM. In experiment [7], the half-inhibitory concentration (IC50) was 29 nM.

The term EC50 denotes the midpoint of the concentration-response curve. What is called IC50 is the concentration at which inhibition is half-maximal.
